PMC10786891, “Massively parallel profiling of RNA-targeting CRISPR-Cas13d”
Changes are numbered by the printed parent chain. Names may count otherwise.

Target: T1, EsCas13d, nuclease-dead (Eubacterium siraeum, UniProt B0MS50, R295A;H300A;R849A;H854A)
T1 sequence: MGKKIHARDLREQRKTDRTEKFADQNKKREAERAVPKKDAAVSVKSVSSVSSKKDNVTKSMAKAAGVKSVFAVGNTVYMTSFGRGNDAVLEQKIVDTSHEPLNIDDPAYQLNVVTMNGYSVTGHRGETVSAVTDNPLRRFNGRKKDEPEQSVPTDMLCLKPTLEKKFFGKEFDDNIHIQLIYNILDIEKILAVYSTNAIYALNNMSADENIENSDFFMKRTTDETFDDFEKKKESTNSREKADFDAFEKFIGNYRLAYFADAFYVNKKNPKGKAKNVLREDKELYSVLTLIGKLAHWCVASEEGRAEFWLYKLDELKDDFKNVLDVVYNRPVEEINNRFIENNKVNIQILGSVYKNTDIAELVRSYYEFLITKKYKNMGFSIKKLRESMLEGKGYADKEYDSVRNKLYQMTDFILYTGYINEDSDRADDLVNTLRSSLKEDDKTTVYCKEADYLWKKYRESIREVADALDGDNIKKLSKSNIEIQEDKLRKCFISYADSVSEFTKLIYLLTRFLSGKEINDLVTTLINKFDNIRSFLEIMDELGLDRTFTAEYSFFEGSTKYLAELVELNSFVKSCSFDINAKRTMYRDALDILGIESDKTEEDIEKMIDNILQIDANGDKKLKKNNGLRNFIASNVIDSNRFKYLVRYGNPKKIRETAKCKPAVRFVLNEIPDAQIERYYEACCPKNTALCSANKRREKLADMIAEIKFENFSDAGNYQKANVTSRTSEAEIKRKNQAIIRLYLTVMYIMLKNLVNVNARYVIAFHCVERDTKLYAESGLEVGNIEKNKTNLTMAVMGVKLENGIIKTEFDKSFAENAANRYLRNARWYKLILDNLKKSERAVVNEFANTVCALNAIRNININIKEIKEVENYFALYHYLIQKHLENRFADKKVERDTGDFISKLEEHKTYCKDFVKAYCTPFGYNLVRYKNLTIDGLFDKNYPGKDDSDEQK
Assay: crRNA (strand 1, pre-loaded); Mg2+; 40 mM Tris-HCl pH 7.5, 150 mM NaCl, 6 mM MgCl2, 1 mM DTT, 0.1% Tween-20, 0.2 mg/ml BSA; 25 C; 10 min per concentration, then washed
Settings: tags: His6-TwinStrep-SUMO cleaved; N-terminal SNAP kept (SNAP-Surface 488); label: 3' end held by stalled T7 RNA polymerase

B1: target 1 MT 5'PFS CCU 3'PFS UAC (mixed)
RNA 1: CACCCGUGCAAAAAUGCAGGGGUCUAAAACUGAGCGGAUAACCUCUCUAUGG
RNA 2: GGGAAUGGAUCCACAUCUACGAAUUCCCUCCAUAGAGAGGUUAUCCGCUCAUACAGAUCGGAAGAGCACACGU
For B1, the Kd was 13.4 ± 2.7 nM.

B2: target 1 MT 5'PFS CAG 3'PFS CCC (mixed)
RNA 1: B1 RNA 1
RNA 2: B1 RNA 2 with C28A, U29G, U52C, A53C
For B2, the Kd was about 49 nM.

B3: target 1 MT 5'PFS AGA 3'PFS UGC (mixed)
RNA 1: B1 RNA 1
RNA 2: B1 RNA 2 with C27A, C28G, U29A, A53G
In the case of B3, the Kd is reported as about 53.5 nM.

B4: target 1 MT 5'PFS GUG 3'PFS GGC (mixed)
RNA 1: B1 RNA 1
RNA 2: B1 RNA 2 with C27G, C28U, U29G, U52G, A53G
Binder B4 has a Kd of 14 ± 2.25 nM.

B5: target 1 MT 5'PFS AGA 3'PFS UGU (mixed)
RNA 1: B1 RNA 1
RNA 2: B1 RNA 2 with C27A, C28G, U29A, A53G, C54U
With B5 the Kd was 110 ± 50 nM.

B6: target 1 MT 5'PFS UUG 3'PFS CAU (mixed)
RNA 1: B1 RNA 1
RNA 2: B1 RNA 2 with C27U, C28U, U29G, U52C, C54U
In the case of B6, the Kd is reported as 41 ± 13.5 nM.

B7: target 1 MT 5'PFS GUG 3'PFS GGU (mixed)
RNA 1: B1 RNA 1
RNA 2: B1 RNA 2 with C27G, C28U, U29G, U52G, A53G, C54U
For B7, the Kd was 25.6 ± 2.7 nM.

B8: target 1 C6A,C22U (mixed)
RNA 1: B1 RNA 1
RNA 2: B1 RNA 2 with C27G, C28U, U29A, C30U, C46A, U52C, A53C, C54G
Binder B8 has a Kd of 11.6 ± 0.7 nM.

B9: target 1 MT 5'PFS GCA 3'PFS AAU (mixed)
RNA 1: B1 RNA 1
RNA 2: B1 RNA 2 with C27G, U29A, U52A, C54U
Binder B9 has a Kd of 41.5 ± 10 nM.

B10: target 1 MT 5'PFS CUU 3'PFS CAC (mixed)
RNA 1: B1 RNA 1
RNA 2: B1 RNA 2 with C28U, U52C
Binder B10 has a Kd of 47 ± 19 nM.

B11: target 1 MT 5'PFS GUC 3'PFS CUA (mixed)
RNA 1: B1 RNA 1
RNA 2: B1 RNA 2 with C27G, C28U, U29C, U52C, A53U, C54A
Binder B11 has a Kd of 17.5 ± 4 nM.

B12: target 1 MT 5'PFS AAU 3'PFS UAG (mixed)
RNA 1: B1 RNA 1
RNA 2: B1 RNA 2 with C27A, C28A, C54G
B12 was tested, and the Kd was 41.5 ± 20 nM.

B13: target 1 MT 5'PFS CCG 3'PFS AUA (mixed)
RNA 1: B1 RNA 1
RNA 2: B1 RNA 2 with U29G, U52A, A53U, C54A
With B13 the Kd was 5.1 ± 1.45 nM.

B14: target 1 MT 5'PFS AAG 3'PFS CAU (mixed)
RNA 1: B1 RNA 1
RNA 2: B1 RNA 2 with C27A, C28A, U29G, U52C, C54U
In the case of B14, the Kd is reported as 23 ± 10.5 nM.

B15: target 1 MT 5'PFS GUC 3'PFS CUU (mixed)
RNA 1: B1 RNA 1
RNA 2: B1 RNA 2 with C27G, C28U, U29C, U52C, A53U, C54U
With B15 the Kd was 13.8 ± 2.6 nM.

B16: target 1 MT 5'PFS UUG 3'PFS CAA (mixed)
RNA 1: B1 RNA 1
RNA 2: B1 RNA 2 with C27U, C28U, U29G, U52C, C54A
Binder B16 has a Kd of about 55 nM.

B17: target 1 MT 5'PFS AAU 3'PFS UAU (mixed)
RNA 1: B1 RNA 1
RNA 2: B1 RNA 2 with C27A, C28A, C54U
B17 was tested, and the Kd was 72 ± 27 nM.

B18: target 1 MT 5'PFS ACA 3'PFS AGA (mixed)
RNA 1: B1 RNA 1
RNA 2: B1 RNA 2 with C27A, U29A, U52A, A53G, C54A
With B18 the Kd was 66.5 ± 24 nM.

B19: target 1 C4U,U8G (mixed)
RNA 1: B1 RNA 1
RNA 2: B1 RNA 2 with C27G, C28U, U29A, U44G, C48U, U52C, A53C, C54G
With B19 the Kd was 14.1 ± 0.8 nM.

B20: target 1 MT 5'PFS AAG 3'PFS CAA (mixed)
RNA 1: B1 RNA 1
RNA 2: B1 RNA 2 with C27A, C28A, U29G, U52C, C54A
B20 was tested, and the Kd was 59 ± 29.5 nM.

B21: target 1 MT 5'PFS GUC 3'PFS CUG (mixed)
RNA 1: B1 RNA 1
RNA 2: B1 RNA 2 with C27G, C28U, U29C, U52C, A53U, C54G
In the case of B21, the Kd is reported as 12.8 ± 2.9 nM.

B22: target 1 MT 5'PFS GCA 3'PFS AAC (mixed)
RNA 1: B1 RNA 1
RNA 2: B1 RNA 2 with C27G, U29A, U52A
B22 gave a Kd of 24 ± 6 nM.

B23: target 1 MT 5'PFS GCC 3'PFS AUU (mixed)
RNA 1: B1 RNA 1
RNA 2: B1 RNA 2 with C27G, U29C, U52A, A53U, C54U
With B23 the Kd was 16.9 ± 4.1 nM.

B24: target 1 insA 3' of 17,insA 3' of 6 (mixed)
RNA 1: B1 RNA 1
RNA 2: GGGAAUGGAUCCACAUCUACGAAUUCGUACCAUAGAAGAGGUUAUCCAGCUCACCGAGAUCGGAAGAGCACACGU
With B24 the Kd was 18.3 ± 1.4 nM.

B25: target 1 MT 5'PFS GUA 3'PFS GUA (mixed)
RNA 1: B1 RNA 1
RNA 2: B1 RNA 2 with C27G, C28U, U29A, U52G, A53U, C54A
Work on B25 yielded a Kd of 12.1 ± 1.5 nM.

B26: target 1 MT 5'PFS AAG 3'PFS CAC (mixed)
RNA 1: B1 RNA 1
RNA 2: B1 RNA 2 with C27A, C28A, U29G, U52C
B26 was tested, and the Kd was about 50.5 nM.

B27: target 1 MT 5'PFS UUG 3'PFS CAC (mixed)
RNA 1: B1 RNA 1
RNA 2: B1 RNA 2 with C27U, C28U, U29G, U52C
Work on B27 yielded a Kd of about 85 nM.

B28: target 1 MT 5'PFS CAA 3'PFS AGU (mixed)
RNA 1: B1 RNA 1
RNA 2: B1 RNA 2 with C28A, U29A, U52A, A53G, C54U
With B28 the Kd was about 52 nM.

B29: target 1 MT 5'PFS AAG 3'PFS CAG (mixed)
RNA 1: B1 RNA 1
RNA 2: B1 RNA 2 with C27A, C28A, U29G, U52C, C54G
B29 was tested, and the Kd was about 37.5 nM.

B30: target 1 MT 5'PFS CAU 3'PFS CCG (mixed)
RNA 1: B1 RNA 1
RNA 2: B1 RNA 2 with C28A, U52C, A53C, C54G
B30 was tested, and the Kd was 23 ± 8.5 nM.

B31: target 1 MT 5'PFS GCC 3'PFS AUA (mixed)
RNA 1: B1 RNA 1
RNA 2: B1 RNA 2 with C27G, U29C, U52A, A53U, C54A
B31 showed a Kd of 13.8 ± 2.4 nM.

B32: target 1 MT 5'PFS GCA 3'PFS AAA (mixed)
RNA 1: B1 RNA 1
RNA 2: B1 RNA 2 with C27G, U29A, U52A, C54A
Work on B32 yielded a Kd of 31.5 ± 7.5 nM.

B33: target 1 MT 5'PFS AGA 3'PFS UGA (mixed)
RNA 1: B1 RNA 1
RNA 2: B1 RNA 2 with C27A, C28G, U29A, A53G, C54A
B33 showed a Kd of 90 ± 40 nM.

B34: target 1 MT 5'PFS GUC 3'PFS CUC (mixed)
RNA 1: B1 RNA 1
RNA 2: B1 RNA 2 with C27G, C28U, U29C, U52C, A53U
B34 was tested, and the Kd was 39.5 ± 12.5 nM.

B35: target 1 MT 5'PFS GUG 3'PFS GGG (mixed)
RNA 1: B1 RNA 1
RNA 2: B1 RNA 2 with C27G, C28U, U29G, U52G, A53G, C54G
For B35, the Kd was 32.9 ± 2.9 nM.

B36: target 1 MT 5'PFS CUA 3'PFS CCG (mixed)
RNA 1: B1 RNA 1
RNA 2: B1 RNA 2 with C28U, U29A, U52C, A53C, C54G
In the case of B36, the Kd is reported as 5.05 ± 1.7 nM.

B37: target 1 MT 5'PFS GCA 3'PFS AAG (mixed)
RNA 1: B1 RNA 1
RNA 2: B1 RNA 2 with C27G, U29A, U52A, C54G
B37 gave a Kd of 32.5 ± 8 nM.

B38: target 1 MT 5'PFS GUA 3'PFS AGG (mixed)
RNA 1: B1 RNA 1
RNA 2: B1 RNA 2 with C27G, C28U, U29A, U52A, A53G, C54G
In the case of B38, the Kd is reported as 22.9 ± 1.4 nM.

B39: target 1 MT 5'PFS GCC 3'PFS AUG (mixed)
RNA 1: B1 RNA 1
RNA 2: B1 RNA 2 with C27G, U29C, U52A, A53U, C54G
With B39 the Kd was 16.5 ± 6 nM.

B40: target 1 MT 5'PFS GCC 3'PFS AUC (mixed)
RNA 1: B1 RNA 1
RNA 2: B1 RNA 2 with C27G, U29C, U52A, A53U
Binder B40 has a Kd of 32 ± 11 nM.
